In US12286461B2, “Recombinant fused polypeptide and use thereof” (priority 2019, dated 2025):

Experiments:
[1] = tested on: SD rats with renal fibrosis; assay: Renal fibrosis animal model (ureter ligation); assay type: in vivo; details: 6 mg/kg s.c. once every five days, after 15 days
Procedure: A renal fibrosis animal model was established. SD rats were anesthetized with 4% chloral hydrate, injected with 1 mL/100 g intraperitoneally, fixed to an operation board, and sterilized in an operation area for further use. […] Muscular layers and abdominal walls were sewed layer by layer, the suture was disinfected with alcohol. After SD rats woke up, the rats were put into a cage for feeding. In the blank group, ureter was not ligated, and other steps were the same.
Then, the animals fell into a blank group, a model group, and recombinant fused polypeptide administration groups, and the administration was started on the second day after the operation, and was performed for 15 days. After administration for 15 days, blood was taken and supernatant was taken to detect the content of TGF-β1 in serum.

[2] = tested on: Streptococcus pneumoniae; assay: Mouse pneumonia model, bacterial pneumonia; assay type: in vivo; details: BALB/C mouse pneumonia model, nasal drip; average ± standard deviation
From the text: (§1) A mouse pneumonia model was successfully established by using a nasal drip method. BALB/C mice with a body weight of 18-24 g were selected, and then anesthetized with ether on day 0, day 1 and day 2, respectively, prepared Streptococcus pneumoniae bacteria solution, adenovirus concentrated solution, Mycoplasma pneumoniae, Chlamydia pneumoniae, protozoa and pneumonia fungi were slowly dropped into the nasal cavity of the mice, so that the bacteria solutions entered the trachea and bronchi, and the bacteria solutions were prevented from flowing into the esophagus during the operation to avoid inactivation of the bacteria solutions, so that the mouse pneumonia model was established. After the model was successfully established, the recombinant fused polypeptides according to the present invention were administered.

[3] = tested on: mice with myocardial fibrosis; assay: Isoprenaline-induced myocardial fibrosis animal model; assay type: in vivo; details: BALB/c mice, isoprenaline 5 mg/kg s.c. daily for 7 days, 12 mg/kg s.c. (Table 5), after the 8th day, FIG. 5
Procedure: In the model group, the experimental mice were injected with isoprenaline (ISO) (5 mg/kg) subcutaneously on the back of the mice every day for 7 consecutive days, and the mice were injected with normal saline subcutaneously (200 μL/mouse) every day. In the blank group, normal saline was injected subcutaneously (200 μL/mouse) every day. […] After the 8th day, blood was taken and was centrifuged, the supernatant was taken, and the content of TGF-β1 in serum was detected.

[4] = tested on: mice with bleomycin-induced skin fibrosis; assay: Bleomycin-induced skin fibrosis model; assay type: in vivo, C57/BL black mice; details: C57/BL mice, bleomycin 10 μg/mL s.c. daily for 28 days, 10 mg/kg s.c. once every five days, 6 times, FIG. 6
Procedure: Bleomycin (10 μg/mL) was injected subcutaneously every day for 28 days to form skin fibrosis. During the modeling period, the administration groups were given drugs for treatment. After modeling, the mice were killed on the next day, and the skin tissue of the mouse back was taken to detect the content of HYP in the skin tissue. [table]

[5] = tested on: protozoa; assay: Mouse pneumonia model, protozoal pneumonia; assay type: in vivo; details: BALB/C mouse pneumonia model, nasal drip; average ± standard deviation
From the text: as §1

[6] = tested on: pulmonary infections; assay: Mouse pneumonia model, pneumonia caused by pulmonary infections; assay type: in vivo, BALB/C mice; details: BALB/C mouse pneumonia model, nasal drip, average ± standard deviation
From the text: as §1

[7] = tested on: pneumonia fungi; assay: Mouse pneumonia model, fungal pneumonia; assay type: in vivo; details: BALB/C mouse pneumonia model, nasal drip; average ± standard deviation
From the text: as §1

[8] = tested on: SD rats with bleomycin-induced pulmonary fibrosis; assay: Bleomycin-induced pulmonary fibrosis animal model; assay type: in vivo; details: for Survival rate (%): bleomycin 5 mg/kg intratracheal, dosage 10 mg/kg (Table 2), administration cycle 15 days from day 7 after modeling; for hydroxyproline (HYP) content in lung tissue / content of TGF-β1 in serum, difference from the model group: bleomycin pulmonary fibrosis, after 15 days; for hydroxyproline (HYP) content in lung tissue: 10 mg/kg s.c. once every five days, FIG. 1; for content of TGF-β1 in serum, difference from the model group: fused polypeptides 10 mg/kg s.c. once every five days, nintedanib 25 mg/kg intragastric once a day
Procedure: SD rats were anesthetized by intraperitoneal injection of 4% chloral hydrate with a concentration of 1 mL/100 g. After anesthesia, the rats were fixed and their necks were disinfected by using cotton with 75% alcohol. The skin of the rat neck was longitudinally cut with scissors, and the fascia and muscle were longitudinally bluntly torn with tweezers to expose the trachea. A syringe was inserted into the trachea to inject 5 mg/kg bleomycin, while a blank group was injected with an equal amount of normal saline. Then a rat plate was quickly erected and rotated, the rats' breathing was observed, the neck wound was sterilized after rotation and was sewn, and an amoxicillin anti-inflammatory drug was sprinkled on the suture. After the operation, the rats were put back into a dry and clean cage for resting, waiting for awakening. The rats were awakened after about 1-2 hours, and then fed normally. On the 7th day after modeling, modeling group animals randomly fell into a model group, a Nintedanib positive drug group, recombinant fused polypeptide 1, 2, 3 and 4 dosage groups, and a normal control group, and the groups were administered separately for an administration cycle of 15 days. Living situations of rats were observed every day and their weights were weighed. After administration for 15 days, the eyeballs were removed and blood was taken, the rats were dissected, and lungs were taken. The content of TGF-β1 in serum and the content of HYP in lung tissues were detected.

[9] = tested on: Chlamydia pneumoniae; assay: Mouse pneumonia model, chlamydia pneumonia; assay type: in vivo; details: BALB/C mouse pneumonia model, nasal drip; average ± standard deviation
From the text: as §1

[10] = tested on: Mycoplasma pneumoniae; assay: Mouse pneumonia model, mycoplasma pneumonia; assay type: in vivo; details: BALB/C mouse pneumonia model, nasal drip; average ± standard deviation
From the text: as §1

[11] = tested on: adenovirus; assay: Mouse pneumonia model, viral pneumonia; assay type: in vivo; details: BALB/C mouse pneumonia model, nasal drip; average ± standard deviation
From the text: as §1

[12] = tested on: SD rats with CCl4-induced hepatic fibrosis; assay: CCl4-induced hepatic fibrosis animal model; assay type: in vivo; details: 40% CCl4 i.p. twice a week for 8 weeks, fused polypeptides 6 mg/kg s.c. once every five days
Procedure: Modeling was performed on the rats. Each group other than the blank group was injected with 40% CCl4 intraperitoneally twice a week, the first injection was performed at 3 mL/kg, and then injection was performed at 2 mL/kg. Modeling was performed for 8 weeks to induce hepatic fibrosis. After the intraperitoneal injection of CCl4 for the fourth time, the drugs were administered according to Table 3. After induction for 8 weeks, the administration was stopped. The SD rats were dissected the next day, and blood was taken. The liver tissue was stored in a refrigerator at −80° C. for further use. The expression of HYP in the hepatic tissue of rats was detected. [table]

[13] = listed as recombinant fused polypeptide III
[14] = listed as recombinant fused polypeptide IV

B1: PRCWRGEGGGGIVRRADRAAVPGGGGRGDAEAAAKEAAAKEAAAKEAAAKKSDKPGGGGTSLDASIIWAMMQNGGGGLSKL (protein)
chain: PRCWRGEGGGGIVRRADRAAVPGGGGRGDAEAAAKEAAAKEAAAKEAAAKKSDKPGGGGTSLDASIIWAMMQNGGGGLSKL
notes: Recombinant fused polypeptide X-linker2-Y expressed in 293 cells
content of TGF-β1 in serum, difference from the model group ([1]; FIG. 4, listed as recombinant fused polypeptide 3, 6 mg/kg): highly significantly different from the model group (**P<0.01) | content of TGF-β1 in serum, difference from the model group ([1]; FIG. 4, listed as recombinant fused polypeptide III, 6 mg/kg): can lower the TGF-β1 content | Inhibitory effect, Bacterial pneumonia [2]: 48.79 ± 7.26 | content of TGF-β1 in serum, difference from the model group ([3]; listed as recombinant fused polypeptide 3): significantly different from the model group (**P<0.01) | content of TGF-β1 in serum, difference from the model group [3, 13]: can lower the TGF-β1 content | content of HYP in skin tissue, difference from the model group ([4]; listed as recombinant fused polypeptide 3, 10 mg/kg): highly significantly different from the model group (**P<0.01) | content of HYP in skin tissue, difference from the model group ([4]; listed as recombinant fused polypeptide III, 10 mg/kg): can lower the hydroxyproline content | Inhibitory effect, Protozoal pneumonia [5]: 68.29 ± 4.70 | Inhibitory effect, Pneumonia caused by pulmonary infections [6]: 58.81 ± 4.10 | Inhibitory effect, Pneumonia caused by pulmonary infections [6, 13]: inhibitory effect | Inhibitory effect, Fungal pneumonia [7]: 65.98 ± 3.64 | Survival rate (%) [8]: 85.7% | Survival rate (%) ([8]; listed as fused polypeptide 3): equivalent to that of the positive drug group | hydroxyproline (HYP) content in lung tissue [8]: can lower the hydroxyproline content | content of TGF-β1 in serum, difference from the model group ([8]; FIG. 2, listed as fused polypeptide 3): highly significantly different from the model group (**P<0.01) | content of TGF-β1 in serum, difference from the model group ([8]; FIG. 2, listed as recombinant fused polypeptide III): can lower the TGF-β1 content | Inhibitory effect, Chlamydia pneumonia [9]: 55.78 ± 4.32 | Inhibitory effect, Mycoplasma pneumonia [10]: 45.53 ± 4.33 | Inhibitory effect, Viral pneumonia [11]: 69.54 ± 7.49 | content of HYP in liver tissue, difference from the model group ([12]; FIG. 3, listed as Recombinant fused polypeptide 3): highly significantly different from the model group (***P<0.001) | content of HYP in liver tissue, difference from the model group ([12]; FIG. 3, listed as recombinant fused polypeptide III): can lower the HYP content

B2: Acetyl-SDKPGGGGTSLDASIIWAMMQNGGGGLSKLAEAAAKEAAAKEAAAKEAAAKKPRCWRGEGGGGIVRRADRAAVPGGGGRGD (protein)
chain: SDKPGGGGTSLDASIIWAMMQNGGGGLSKLAEAAAKEAAAKEAAAKEAAAKKPRCWRGEGGGGIVRRADRAAVPGGGGRGD
modifications: N-acetyl
notes: Recombinant fused polypeptide Y-linker2-X expressed in 293 cells
content of TGF-β1 in serum, difference from the model group ([1]; FIG. 4, listed as recombinant fused polypeptide 4, 6 mg/kg): highly significantly different from the model group (***P<0.001) | content of TGF-β1 in serum, difference from the model group ([1]; FIG. 4, listed as recombinant fused polypeptide IV, 6 mg/kg): can lower the TGF-β1 content | Inhibitory effect, Bacterial pneumonia [2]: 48.61 ± 6.54 | content of TGF-β1 in serum, difference from the model group ([3]; listed as recombinant fused polypeptide 4): significantly different from the model group (**P<0.01) | content of TGF-β1 in serum, difference from the model group [3, 14]: can lower the TGF-β1 content | content of HYP in skin tissue, difference from the model group ([4]; listed as recombinant fused polypeptide 4, 10 mg/kg): highly significantly different from the model group (***P<0.001) | content of HYP in skin tissue, difference from the model group ([4]; listed as recombinant fused polypeptide IV, 10 mg/kg): can lower the hydroxyproline content | Inhibitory effect, Protozoal pneumonia [5]: 63.45 ± 4.68 | Inhibitory effect, Pneumonia caused by pulmonary infections [6]: 56.93 ± 5.28 | Inhibitory effect, Pneumonia caused by pulmonary infections [6, 14]: inhibitory effect | Inhibitory effect, Fungal pneumonia [7]: 54.12 ± 5.12 | Survival rate (%) [8]: 92.9% | hydroxyproline (HYP) content in lung tissue [8]: can lower the hydroxyproline content | content of TGF-β1 in serum, difference from the model group ([8]; FIG. 2, listed as recombinant fused polypeptide 4): significantly different from the model group (*P<0.05) | content of TGF-β1 in serum, difference from the model group ([8]; FIG. 2, listed as recombinant fused polypeptide IV): can lower the TGF-β1 content | Inhibitory effect, Chlamydia pneumonia [9]: 55.26 ± 6.12 | Inhibitory effect, Mycoplasma pneumonia [10]: 47.30 ± 5.30 | Inhibitory effect, Viral pneumonia [11]: 78.12 ± 8.27 | content of HYP in liver tissue, difference from the model group ([12]; FIG. 3, listed as Recombinant fused polypeptide 4): highly significantly different from the model group (***P<0.001) | content of HYP in liver tissue, difference from the model group ([12]; FIG. 3, listed as recombinant fused polypeptide IV): can lower the HYP content
